Results reported in patent publication US20190315845A1 (ANNEXON, published 2019).

Columns and labels:
mouse C1q [1] = biological target: T1, mouse C1q (mouse, UniProt P98086 23-245; P14106 26-253; Q02105 30-246); assay: SPR Biacore T200, 1:1 model; mC1q immobilised (ligand), Fab analyte; mean of 2 independent analyses
T1 construct: Purified mouse C1q protein; also called mC1q
Method: (§1) Due to concerns about stability, two chips were prepared; one with hC1q and mC1q (Chip All) as ligands and one with IgG and Fab (Chip A13) as ligands Immobilization for m/h C1q was carried out at a protein concentration of 5 μg/ml in 10 mM acetate buffer pH 5.5, whereas immobilization for IgG and Fab was carried out at a protein concentration of 0.5-2 μg/ml in 10 mM acetate buffer pH 5.0, both on a CMS Series S sensor chip (Biacore).
(§2) Both C1q complexes were immobilized based on concerns over avidity (i.e., two immobilized antibodies binding C1q), and the very high levels of NSB observed using mC1q and to a lesser extent hC1q to the CM5 surface (charge mediated estimated C1q: pI 8-9). Single cycle kinetics (SCK) were used initially to derive estimated kinetic constants due to uncertainty over the stability of the C1q complex and the regeneration conditions. Full kinetic analysis was performed after SCK. The ligand stability control injections performed during the kinetic run indicated either the regeneration conditions used were inactivating the ligand, or the ligand itself was unstable at 25° C. during the 48 hours required for kinetic analysis.
(§3) The association phase was monitored for 500 seconds to allow some of the higher concentrations of analyte to reach steady state. In order to observe a sufficient signal decrease (>10%) during the dissociation phase of the kinetic cycle, dissociation was measured for up to 10,800 seconds to allow sufficient dissociation to occur for accurate assessment of the kinetics. The signal from the reference channel Fₑ1 was subtracted from that of Fₑ2, Fₑ3, and Fₑ4.

human C1q [2] = biological target: T2, human C1q (human, UniProt P02745 23-245; P02746 28-253; P02747 29-245); assay: SPR Biacore T200, 1:1 model, single cycle kinetics; hC1q immobilised (ligand), Fab analyte
T2 construct: Purified human C1q protein (plate-coated in ELISA, ligand or analyte in SPR, in human serum in CH50); also called hC1q; complement factor C1q

human C1q [3] = biological target: T2, human C1q; assay: SPR Biacore T200, heterogeneous ligand model, kd1; hC1q immobilised (ligand), Fab analyte
human C1q [4] = biological target: T2, human C1q; assay: SPR Biacore T200, heterogeneous ligand model, ka2; hC1q immobilised (ligand), Fab analyte
Method: as §1
(§4) The kinetic parameters for both the IgG and Fab interactions with hC1q were in the low picomolar range (Table 6 for 1-to-1 model and Table 7 for the heterogeneous model). In order to avoid avidity, hC1q was initially used as the ligand, however this limited the analysis to single cycle kinetics and the use of more complex models, for example, heterogeneous ligand binding models (Equation 3), that may represent the different forms of hC1q structure that were associated with chemical coupling of a multi-subunit protein to a surface. When hC1q was used as the analyte both IgG and Fab were immobilized at the lowest concentrations possible to avoid avidity. The data was analyzed using a 1-to-1 model and a more complex bivalent analyte model (Equation 4). […] It should be noted that the dissociation rate was too slow to measure accurately with this technique. […]

mouse C1q [5] = biological target: T1, mouse C1q; assay: SPR Biacore T200, 1:1 model; mC1q immobilised (ligand), Fab analyte; analysis 1
mouse C1q [6] = biological target: T1, mouse C1q; assay: SPR Biacore T200, 1:1 model; Fab immobilised (ligand), mC1q analyte; analysis 1
mouse C1q [7] = biological target: T1, mouse C1q; assay: SPR Biacore T200, 1:1 model; mC1q immobilised (ligand), Fab analyte; analysis 2
Method: as §1, §2, §3

human C1q [8] = biological target: T2, human C1q; assay: SPR Biacore T200, 1:1 model; Fab immobilised (ligand), hC1q analyte
human C1q [9] = biological target: T2, human C1q; assay: SPR Biacore T200, heterogeneous ligand model, kd2; hC1q immobilised (ligand), Fab analyte
Method: as §1, §4

human C1q [10] = biological target: T2, human C1q; assay: SPR Biacore T200, heterogeneous ligand model, KD2; hC1q immobilised (ligand), Fab analyte
Method: as §1, §4

human C1q [11] = biological target: T2, human C1q; assay: SPR Biacore T200, heterogeneous ligand model, ka1; hC1q immobilised (ligand), Fab analyte
Method: as §1, §4

mouse C1q [12] = biological target: T1, mouse C1q; assay: SPR Biacore T200, 1:1 model; Fab immobilised (ligand), mC1q analyte; analysis 2
mouse C1q [13] = biological target: T1, mouse C1q; assay: SPR Biacore T200, 1:1 model; Fab immobilised (ligand), mC1q analyte; mean of 2 independent analyses
Method: as §1, §3

human C1q [14] = biological target: T2, human C1q; assay: SPR Biacore T200, heterogeneous ligand model, KD1; hC1q immobilised (ligand), Fab analyte
Method: as §1, §4

T1 sequence (P98086 23-245 limits assumed, chain 1 of 3): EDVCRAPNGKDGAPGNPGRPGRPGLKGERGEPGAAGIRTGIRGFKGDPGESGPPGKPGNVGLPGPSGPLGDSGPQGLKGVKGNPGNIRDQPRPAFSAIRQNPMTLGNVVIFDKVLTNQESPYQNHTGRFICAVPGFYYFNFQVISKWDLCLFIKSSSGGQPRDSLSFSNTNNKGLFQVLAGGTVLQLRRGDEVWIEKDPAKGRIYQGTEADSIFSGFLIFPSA
T1 sequence (P14106 26-253 limits assumed, chain 2 of 3): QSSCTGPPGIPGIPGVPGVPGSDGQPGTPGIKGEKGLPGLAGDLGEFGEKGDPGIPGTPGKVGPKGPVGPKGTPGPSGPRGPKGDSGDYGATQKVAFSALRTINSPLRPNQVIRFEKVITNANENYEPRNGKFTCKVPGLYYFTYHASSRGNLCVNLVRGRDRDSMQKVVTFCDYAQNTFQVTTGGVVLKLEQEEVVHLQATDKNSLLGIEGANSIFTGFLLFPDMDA
T1 sequence (Q02105 30-246 limits assumed, chain 3 of 3): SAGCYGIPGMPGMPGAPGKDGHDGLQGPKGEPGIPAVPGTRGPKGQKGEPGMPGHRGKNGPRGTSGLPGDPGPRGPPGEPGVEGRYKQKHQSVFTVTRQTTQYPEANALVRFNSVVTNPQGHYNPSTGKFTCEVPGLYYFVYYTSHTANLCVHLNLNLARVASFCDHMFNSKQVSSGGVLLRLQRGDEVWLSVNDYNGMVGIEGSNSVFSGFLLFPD
T2 sequence (P02745 23-245 limits assumed, chain 1 of 3): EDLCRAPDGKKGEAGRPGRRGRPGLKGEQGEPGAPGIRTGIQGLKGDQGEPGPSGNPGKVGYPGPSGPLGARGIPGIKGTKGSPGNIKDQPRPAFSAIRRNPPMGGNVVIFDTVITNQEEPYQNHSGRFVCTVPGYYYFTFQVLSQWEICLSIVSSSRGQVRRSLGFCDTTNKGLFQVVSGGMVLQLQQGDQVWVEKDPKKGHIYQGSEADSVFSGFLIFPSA
T2 sequence (P02746 28-253 limits assumed, chain 2 of 3): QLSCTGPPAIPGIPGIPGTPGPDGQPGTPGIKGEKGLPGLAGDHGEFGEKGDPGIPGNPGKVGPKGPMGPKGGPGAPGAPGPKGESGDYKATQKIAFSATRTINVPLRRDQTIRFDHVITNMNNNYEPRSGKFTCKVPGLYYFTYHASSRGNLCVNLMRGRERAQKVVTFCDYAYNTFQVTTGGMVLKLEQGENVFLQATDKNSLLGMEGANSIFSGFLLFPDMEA
T2 sequence (P02747 29-245 limits assumed, chain 3 of 3): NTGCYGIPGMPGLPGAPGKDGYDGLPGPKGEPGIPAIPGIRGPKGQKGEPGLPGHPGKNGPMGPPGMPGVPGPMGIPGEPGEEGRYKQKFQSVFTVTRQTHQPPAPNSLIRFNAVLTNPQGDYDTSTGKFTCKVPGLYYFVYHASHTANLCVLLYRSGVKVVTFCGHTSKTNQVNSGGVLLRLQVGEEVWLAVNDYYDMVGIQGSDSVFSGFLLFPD

B1: Fab fragment of humanized anti-C1q antibody VH3/Vκ3 (Fab)
heavy: QVQLVQSGAELKKPGASVKVSCKSSGYHFTSYWMHWVKQAPGQGLEWIGVIHPNSGSINYNEKFESRVTITVDKSTSTAYMELSSLRSEDTAVYYCAGERDSTEVLPMDYWGQGTTVTVSS
light: DVQITQSPSSLSASLGERATINCRASKSINKYLAWYQQKPGKAPKLLIYSGSTLQSGIPARFSGSGSGTDFTLTISSLEPEDFAMYYCQQHNEYPLTFGQGTKLEIK
notes: also called Fab VH3/Vκ3; Fab-VH3/Vκ3; not shown: CH1 part of the human IgG4 (S241P L248E) constant region left after digestion of the IgG with a Fab Micro Preparation Ki; human kappa light chain constant region
A Kd (mouse C1q [1]) of 677 nM, a koff (mouse C1q [1]) of 0.0043 s⁻¹ and a kon (mouse C1q [1]) of 6500 M⁻¹ s⁻¹ were found for B1 in this work. The Kd (human C1q [2]) was under 0.192 nM, the koff (human C1q [2]) was under 1e-05 s⁻¹ and the kon (human C1q [2]) was 52000 M⁻¹ s⁻¹. For the same binder, the koff (human C1q [3]) was 2.3e-05 s⁻¹, the kon (human C1q [4]) was 18000 M⁻¹ s⁻¹ and the Kd (mouse C1q [5]) was 748 nM. For the same binder, the koff (mouse C1q [5]) was 0.0046 s⁻¹, the kon (mouse C1q [5]) was 6230 M⁻¹ s⁻¹ and the Kd (mouse C1q [6]) was 126 nM. It also gave a koff (mouse C1q [6]) of 0.056 s⁻¹, a kon (mouse C1q [6]) of 450000 M⁻¹ s⁻¹ and a Kd (mouse C1q [7]) of 607 nM. For the same binder, the koff (mouse C1q [7]) was 0.0041 s⁻¹, the kon (mouse C1q [7]) was 6900 M⁻¹ s⁻¹ and the Kd (human C1q [8]) was 0.0086 nM. For the same binder, the koff (human C1q [8]) was 9.1e-06 s⁻¹, the kon (human C1q [8]) was 1.1e+06 M⁻¹ s⁻¹ and the koff (human C1q [9]) was 6.3e-08 s⁻¹. The Kd (human C1q [10]) was 3.4 nM, the kon (human C1q [11]) was 130000 M⁻¹ s⁻¹ and the Kd (mouse C1q [12]) was 121 nM. The Kd (mouse C1q [13]) was 123 nM, the koff (mouse C1q [13]) was 0.032 s⁻¹ and the kon (mouse C1q [13]) was 310000 M⁻¹ s⁻¹. It also gave a Kd (human C1q [14]) of 175 nM.
